Experimental findings from patent US20100092455A1 (PIERRE FABRE MEDICAMENT, published 2010) are described below.

Assay [1] concerns the target T1, recombinant human JAM-A/Fc (R&D Systems ref. 1103-JM) (human, UniProt Q9Y624 28-238).
T1 construct: also called hJAM-A/Fc; Human JAM-1-Fc
T1 sequence: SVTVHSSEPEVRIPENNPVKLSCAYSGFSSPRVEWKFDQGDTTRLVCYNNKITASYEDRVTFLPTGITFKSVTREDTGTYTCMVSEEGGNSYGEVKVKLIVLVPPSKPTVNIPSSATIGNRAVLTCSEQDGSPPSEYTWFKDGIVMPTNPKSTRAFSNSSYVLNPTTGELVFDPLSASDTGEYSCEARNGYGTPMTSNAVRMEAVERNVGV
Nature of the assay: SPR (BIAcore X), double reference, Langmuir A+B binding model, 25° C. As for the experimental part:
(§1) FIG. 14 is sensorgrams obtained with a double reference, (Fc2-Fc1)6F4(Fc2-Fc1)HBS-EP. The curve is fitted using a Langmuir A+B binding model.
(§2) Murine monoclonal 6F4 antibody: 1.3 mg/ml [0351] […] Running buffer: HBS-EP (BIAcore) [0354] Binding kit: “Amine” (BIAcore) [0355] Binding buffer: Acetate pH 5.0 (BIAcore) [0356] Capturing antibody: goat IgG Fc anti-human (=GAH, goat anti-human) (Bioscience) [0357] Regeneration buffer: Glycine, HCl pH 1.5 for 30 seconds (BIAcore).
In general terms: SPR reads the build-up and loss of mass on a sensor chip optically.

In assay [2] the target is T2, natural human JAM-A protein (F11R / junctional adhesion molecule A), isoform a (human, UniProt Q9Y624 28-299).
T2 construct: Natural protein; Mass spectrometry matched it to JAM-A isoform a; also called F11 receptor; JAM-1
T2 sequence: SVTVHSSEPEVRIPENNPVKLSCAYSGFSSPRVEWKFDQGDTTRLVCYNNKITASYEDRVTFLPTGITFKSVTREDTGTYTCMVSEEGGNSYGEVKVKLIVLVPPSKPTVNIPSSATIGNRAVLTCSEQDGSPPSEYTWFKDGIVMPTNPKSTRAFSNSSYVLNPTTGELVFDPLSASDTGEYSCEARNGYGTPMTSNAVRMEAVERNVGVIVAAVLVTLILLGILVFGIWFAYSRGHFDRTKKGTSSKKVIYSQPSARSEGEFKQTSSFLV
Kind of assay: flow cytometry, labeling of MCF-7 cells with 6F4.

Assay [3] has as its target T1, recombinant human JAM-A/Fc (R&D Systems …). Kind of assay: SPR (BIAcore X), KD=kd/ka. As for the experimental part:
as §1, §2

For assay [4], the target named is T3, recombinant murine JAM-A/Fc (R&D Systems ref. 1077-JM) (murine, UniProt O88792 27-238).
T3 construct: extracellular domain; Bought product; also called mJAM-A/Fc; Mouse JAM-1-Fc; not shown: Fc part of the bought fusion protein
T3 sequence (looked up): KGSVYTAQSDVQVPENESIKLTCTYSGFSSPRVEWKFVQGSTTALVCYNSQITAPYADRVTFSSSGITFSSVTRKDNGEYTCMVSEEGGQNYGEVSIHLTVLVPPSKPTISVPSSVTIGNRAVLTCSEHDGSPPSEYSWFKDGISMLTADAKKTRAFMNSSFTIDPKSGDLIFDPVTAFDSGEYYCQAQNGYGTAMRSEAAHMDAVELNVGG
Kind of assay: western blot, non-reducing, revealed with 6F4; 250, 25 and 10 ng deposited.

Assay [5] has as its target T4, recombinant human JAM-C/Fc (R&D Systems ref. 1189-J3) (human, UniProt Q9BX67 32-241, limits assumed).
T4 construct: Bought product; also called hJAM-C/Fc; human form of JAM-C; not shown: Fc part of the bought fusion protein
T4 sequence (looked up): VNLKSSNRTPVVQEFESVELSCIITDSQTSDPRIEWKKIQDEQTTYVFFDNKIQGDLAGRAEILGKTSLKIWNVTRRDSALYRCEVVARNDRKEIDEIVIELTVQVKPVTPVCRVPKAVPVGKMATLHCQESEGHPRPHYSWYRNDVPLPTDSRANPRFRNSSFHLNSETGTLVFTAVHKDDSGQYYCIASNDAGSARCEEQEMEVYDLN
The description is as above.

The target in assay [6] is T5, recombinant human JAM-B/Fc (R&D Systems ref. 1074-VJ) (human, UniProt P57087 29-236, limits assumed).
T5 construct: Bought product; also called hJAM-B/Fc; human form of JAM-B; not shown: Fc part of the bought fusion protein
T5 sequence (looked up): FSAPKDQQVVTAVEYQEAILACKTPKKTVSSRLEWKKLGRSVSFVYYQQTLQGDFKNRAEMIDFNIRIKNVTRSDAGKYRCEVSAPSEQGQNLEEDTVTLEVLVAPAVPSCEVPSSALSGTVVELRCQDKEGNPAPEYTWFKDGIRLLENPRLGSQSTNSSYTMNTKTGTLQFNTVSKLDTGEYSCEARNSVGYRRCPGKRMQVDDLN
The description is as above.

B1: murine monoclonal 6F4 antibody (antibody, V domains shown)
VH: EIQLQQSGPELVKPGASVKVSCKASGYSFTDYSMYWVKQSHGKSLEWIGYIDPYNGGTRYNQKFKGKATLTVDKSSSTAFMHLNSLTSEDSAVYYCARQTDYFDYWGQGTTLTVSS
VL: DIQMTQSPSSLSASLGGKVTITCKASQDINNYIAWYQHKPGKGPRLLIHYTSTLQAGIPSRFSGSGSGRDYSFSISNLEPEDIGTYYCLQYDNLWTFGGGTKLEIKR
notes: also called 6F4 MAb; Mab 6F4; copies: 2 + 2
With B1, the koff – broadly, the first-order rate constant of dissociation – in assay [1] is 2.5e-07 s⁻¹. In addition, the kon (as a rule, a measure of how fast the partners come together) in assay [1] worked out at 138000 M⁻¹ s⁻¹. For the same molecule, the half-maximal effective concentration (EC50 (read off the curve)) (commonly the midpoint of the concentration-response curve) in assay [2] was roughly 0.3 µg/mL. The Kd – broadly, the equilibrium constant for the complex coming apart – in assay [3] stood at 0.022 nM. Further, the binding result in assay [4], in assay [5] and in assay [6] was “no binding (tested: 250 ng)” in each case.
